This passage reports EC50 results from patent US20220273711A1 (published 2022).

Substitutions are numbered along the chain they refer to. Names and notes keep the numbering of the source.

B1: Her2_Cage_L209A (Tuned Cage targeted to Her2 by DARPin (L209A)) (designed binder)
chain: MGSHHHHHHGSGSENLYFQGSGGSDLGKKLLEAARAGQDDEVRILMANGADVNAKDEYGLTPLYLATAHGHLEIVEVLLKNGADVNAVDAIGFTPLHLAAFIGHLEIAEVLLKHGADVNAQDKFGKTAFDISIGNGNEDLAEILQKLNSGSGSGKPGQASGSELARKLLEASTKLQRLNIRLAEALLEAIARLQELNLELVYLAVELTDPKRIRDEIKEVKDKSKEIIRRAEKEIDDAAKESEKILEEAREAISGSGSELAKLLLKAIAETQDLNLRAAKAFLEAAAKLQELNIRAVELLVKLTDPATIREALEHAKRRSKEIIDEAERAIRAAKRESERIIEEARRLIEKGSGSGSELARELLRAHAQAQRLNLELLRELLRALAQLQELNLDLLRLASELTDEIWIAQELRRIGDEFNAYYADAERLIREAAAASEKISREAERLIR
B2: Her2_Cage (Original Cage targeted to Her2 by DARPin) (designed binder)
chain: B1 chain with A370L
B3: Her2_Cage_I269S (Tuned Cage targeted to Her2 by DARPin (I269S)) (designed binder)
chain: B1 chain with A370L, I430S
B4: Her2_Cage_I287A (Tuned Cage targeted to Her2 by DARPin (I287A)) (designed binder)
chain: B1 chain with A370L, I448A
B5: Her2_Cage_I287S (Tuned Cage targeted to Her2 by DARPin (I287S)) (designed binder)
chain: B1 chain with A370L, I448S

In the test the target is biotinylated Bcl2 (wild-type non-optimized Bcl2 with C-terminal Avi and 6xHis-tags) (UniProt P10415 1-207, enzymatically biotinylated using BirA (Avi tag)). As to the kind of experiment: BLI; midpoint; Cage plus Key_EGFR, co-localization-independent.
Sequence of biotinylated Bcl2 (wild-type non-optimized Bcl2 with C-terminal Avi and 6xHis-tags) (P10415 1-207): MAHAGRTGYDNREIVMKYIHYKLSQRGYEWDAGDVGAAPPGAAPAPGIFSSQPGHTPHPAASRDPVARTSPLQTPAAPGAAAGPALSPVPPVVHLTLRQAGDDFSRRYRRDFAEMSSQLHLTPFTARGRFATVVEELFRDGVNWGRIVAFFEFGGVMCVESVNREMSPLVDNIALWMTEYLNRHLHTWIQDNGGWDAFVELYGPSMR
The term EC50 denotes the concentration giving half of the maximal effect. On to B1, for which the EC50 was found to be 23 nM.
Take B2: the concentration for a half-maximal effect (EC50) was 63 nM.
For B3, the EC50 amounted to 8.4 nM.
For B4 the value was 12 nM; for B5, 8.7 nM.
